Values quoted from earlier work as cited in article PMC6414276.
Where two headings read alike, the source gives them in different places. Values belong to the substance of their own block, whether it stands above or below them.

How the values were obtained:
[1] = target: CBP TAZ1 (Mus musculus) (UniProt P45481)
[2] = target: CBP TAZ1 (Mus musculus) (UniProt P45481); remark: listed apart in the source
[3] = target: CBP TAZ1 (Mus musculus) (UniProt P45481); remark: listed apart in the source

Sequence of UniProt P45481 (P45481 340-439): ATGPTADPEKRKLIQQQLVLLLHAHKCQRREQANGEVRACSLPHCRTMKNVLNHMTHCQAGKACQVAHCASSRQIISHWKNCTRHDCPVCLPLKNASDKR

Kd [1]: 47 nM
Substance: HIF-1α 790-826 (from UniProt Q16665)

Kd [2]: > 1 mM
Substance: HIF-1α LPQL-αB motif (from UniProt Q16665)

Kd [3]: 200 µM
Substance: HIF-1α αC motif (from UniProt Q16665)
